According to PMC9892617, “Small-angle x-ray and neutron scattering of MexR and its complex with DNA supports a conformational selection binding model” (Biophysical Journal, 2022):

Tests used:
[1] = target: the molecule itself; assay: SEC-MALS; Superdex 75 Increase 5/150, 20 mM HEPES pH 7.1, 150 mM NaCl, 10 mM DTT, 1% v/v glycerol, 0.3 mL/min, 20°C; MALLS with RI detection
MexR = target: T1, MexR (Pseudomonas aeruginosa, UniProt P52003 5-139); assay: ITC; one MexR dimer per duplex; 20 C; ITC: 20 mM sodium phosphate pH 7.1, 150 mM NaCl, 5 mM beta-mercaptoethanol, 20 C; complex sample buffer: 20 mM sodium phosphate pH 7.1, 150 mM NaCl, 10 mM DTT; settings: protein: recombinant; tags: 6xHis-thioredoxin tag removed with TEV; chain copies: 2; blunt
T1 sequence: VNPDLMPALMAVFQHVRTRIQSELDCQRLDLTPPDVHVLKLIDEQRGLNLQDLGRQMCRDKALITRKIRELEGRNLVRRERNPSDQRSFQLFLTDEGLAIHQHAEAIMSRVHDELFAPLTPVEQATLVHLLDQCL

B1: MexR (Val5-Leu139) (domain or fragment)
chain: T1 sequence
notes: MexR, transcriptional repressor of the MarR family, Pseudomonas aeruginosa, UniProt P52003, residues Val5-Leu139; Homodimer in solution; also called apo-MexR; hMexR; source: E. coli BL21 Rosetta 2(DE3), purified (Ni-NTA IMAC, TEV cleavage, reverse IMAC, Superdex 75)
stoichiometry N [1]: 2

B2: PII DNA (dsDNA)
DNA 1: CTTATTTTAGTTGACCTTATCAACCTTGTTTCAG
DNA 2: CTGAAACAAGGTTGATAAGGTCAACTAAAATAAG
Kd (MexR): 240 nM
